This experiment concerns the target T1, Human CD22 extracellular segment conjugated His label (human, UniProt P20273 20-687).
T1 construct: extracellular domain; Bought recombinant protein; also called h CD22-His; hCD22-His; not shown: His label
Description: ELISA, h CD22-His coated at 2 µg/ml, antibody in 3-fold dilutions. The source says: M971 was a 7 epitope humanized CD22 antibody. The specific sequence and information can be found publicly. The antibody was synthesized by Shenzhen FeipengBiological therapy Co., LTD.
On the technique in general: ELISA stands for enzyme-linked immunosorbent assay.

B1: CD22 antibody FC2-201 (antibody, IgG2b, V domains shown)
VH: KVQLQQSGAGLVKPGASVKLSCKASGYTFTDSILHWLMQRSGQGLEWIGWFYPGSGSIKYNEKFKDKATLTADKSSSTVYMELSRLTSEDSAFYFCARHEDGYDGFAYWGQGTLVTVSA
VL: ENVLTQSPAIMSASLGEKVTMSCRASSSVNYIFWYQQKSDASPKLWIYYTSNLAPGVPARFSGSGSGNSYSLTISSMEGEDAATYYCQQFTSSPFTFGSGTKLEIKR
notes: Mouse hybridoma monoclonal antibody
Turning to B1, the binding result was “binds”.

B2: CD22 antibody FC2-117 (antibody, IgG1, V domains shown)
VH: DVQLQESGPGLVKPSQSLSLTCSVTGYSITSGYYWNWIRQFPGNKLEWMGYISYDGSNNYNPSLKNRISITRDTSKNQFFLKLNSVTTEDTATYYCTKGGYGYYFDYWGQGTTLTVSS
VL: DIQMTQSPASLSASVGETVTITCRASGNIHNYLAWYQQKQGKSPQLLVYNAKTLADGVPSRFSGSGSGTQYSLKINSLQPEDFGSYYCQHFWSTPPTFGGGTKLEIKR
notes: as for B1
Take B2: the binding result is “binds”.

(Values after patent publication US20230331840A1 (FAPON BIOTHERAPY, published 2023).)
